Measured values taken from US20030143697A1.
Blank lines part the entries; values can stand above or below the molecule they belong to.

What was measured:
human IL-4 (human) = human IL-4 (human) (UniProt P05112); assay: cell-based or functional assay
human IL-13 (human) = human IL-13 (human) (UniProt P35225); assay: cell-based or functional assay
[1] = target: recombinant human IL-1 (human); assay: cell-based or functional assay
human IL-6 (human) [2] = target: human IL-6 (human) (UniProt P05231); assay: cell-based or functional assay
Chain of human IL-6 (human) (P05231 30-212 limits assumed): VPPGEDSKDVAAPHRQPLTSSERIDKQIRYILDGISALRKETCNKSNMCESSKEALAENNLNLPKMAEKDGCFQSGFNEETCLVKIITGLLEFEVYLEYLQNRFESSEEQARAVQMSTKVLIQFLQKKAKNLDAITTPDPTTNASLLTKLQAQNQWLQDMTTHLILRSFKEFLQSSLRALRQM

human IL-6 (human) [3] = target: human IL-6 (human) (UniProt P05231); assay: dissociation of 20 pM 125I-IL-6 from 500 pM mAb B-E8 after a 1000-fold excess of cold IL-6; Protein G-Sepharose precipitation
human IL-6 (human) [4] = target: human IL-6 (human) (UniProt P05231); assay: cell-based or functional assay; remark: listed apart in the source
gp130 on PC12D cells = target: T1, gp130 on PC12D cells (UniProt P40190); assay: cell-based or functional assay
T1 sequence (looked up): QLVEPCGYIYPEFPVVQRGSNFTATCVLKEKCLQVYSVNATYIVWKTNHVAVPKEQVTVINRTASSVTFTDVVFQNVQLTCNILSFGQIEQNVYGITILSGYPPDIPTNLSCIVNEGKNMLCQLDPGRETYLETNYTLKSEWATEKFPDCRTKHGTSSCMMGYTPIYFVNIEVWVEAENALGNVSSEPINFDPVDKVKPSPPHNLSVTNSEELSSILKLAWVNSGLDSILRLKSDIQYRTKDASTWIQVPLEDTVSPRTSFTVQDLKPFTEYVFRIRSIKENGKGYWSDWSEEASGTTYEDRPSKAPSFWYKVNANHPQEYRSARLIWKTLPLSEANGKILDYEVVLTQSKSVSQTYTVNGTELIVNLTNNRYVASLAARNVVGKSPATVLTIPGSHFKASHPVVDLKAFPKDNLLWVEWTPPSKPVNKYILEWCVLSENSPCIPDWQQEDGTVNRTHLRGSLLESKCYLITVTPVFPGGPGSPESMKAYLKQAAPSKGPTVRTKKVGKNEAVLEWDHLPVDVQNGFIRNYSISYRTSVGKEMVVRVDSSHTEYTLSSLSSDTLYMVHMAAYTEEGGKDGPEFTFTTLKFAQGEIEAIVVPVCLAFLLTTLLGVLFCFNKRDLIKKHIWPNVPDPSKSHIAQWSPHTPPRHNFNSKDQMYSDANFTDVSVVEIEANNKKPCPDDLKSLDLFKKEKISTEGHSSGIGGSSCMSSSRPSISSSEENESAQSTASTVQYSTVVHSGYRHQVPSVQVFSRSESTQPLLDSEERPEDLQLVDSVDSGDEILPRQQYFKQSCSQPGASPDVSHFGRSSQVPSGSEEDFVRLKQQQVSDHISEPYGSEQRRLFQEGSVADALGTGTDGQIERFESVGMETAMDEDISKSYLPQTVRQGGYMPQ

Chain of human IL-13 (human) (P35225 35-146 limits assumed): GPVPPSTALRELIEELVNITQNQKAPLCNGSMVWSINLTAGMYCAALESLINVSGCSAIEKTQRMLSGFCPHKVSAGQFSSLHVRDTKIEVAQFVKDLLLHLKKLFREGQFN
Chain of human IL-4 (human) (P05112 25-153 limits assumed): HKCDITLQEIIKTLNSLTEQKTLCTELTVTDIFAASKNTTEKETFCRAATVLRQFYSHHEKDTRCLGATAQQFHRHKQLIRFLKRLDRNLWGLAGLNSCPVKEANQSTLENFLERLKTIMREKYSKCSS

Molecule: IL-4Rα.IL-13Rα1.Fc (Fc fusion)
- TF1 bioassay (MTS); IL-4 concentration at which growth is inhibited by 50% with 10 nM Trap (human IL-4 (human)): 3 to 4 nM
- TF1 bioassay (MTS); highest IL-4 concentration whose growth effect is blocked by 10 nM Trap (human IL-4 (human)): 1 nM
- TF1 bioassay (MTS); IL-13 concentration at which growth is inhibited by 50% with 10 nM Trap (human IL-13 (human)): 4 to 5 nM
- TF1 bioassay (MTS); highest IL-13 concentration whose growth effect is blocked by 10 nM Trap (human IL-13 (human)): 2 nM

B1: anti-IL-6 monoclonal neutralizing antibody B-E8 (antibody, from another filing, V domains shown)
VH: QVTLKESGPGILKPSQTLSLTCSFSGFSLSTSGMGVGWIRQPSGKGLEWLAHIWWDDDKYYNPSLKSQLTISKDTSRNQVFLKITSVDTADTATYYCARSYDDYLYYALDYWGQGTSVTVSS
VL: DIVMTQSPATLSVTPGDRVSLSCRASQSISDYLHWYQQKSHESPRLLIKSVSQSISGIPSRFSGSGSGSDFTLSINSVEPEDVGVYYCQNGHSFPLTFGAGTKLELK
- percent of the initial counts of 125I-IL-6 still bound after three days (human IL-6 (human) [3]): < 5%
- IL-6-dependent proliferation of XG-1 cells (MTT assay, 50 pg/ml IL-6) (fold molar excess) (human IL-6 (human) [4]): 10

B2: Rat CNTF (ligand, UniProt P20294 1-200, looked up)
chain: MAFAEQTPLTLHRRDLCSRSIWLARKIRSDLTALMESYVKHQGLNKNINLDSVDGVPVASTDRWSEMTEAERLQENLQAYRTFQGMLTKLLEDQRVHFTPTEGDFHQAIHTLMLQVSAFAYQLEELMVLLEQKIPENEADGMPATVGDGGLFEKKLWGLKVLQELSQWTVRSIHDLRVISSHQMGISALESHYGAKDKQM
- tyrosine phosphorylation of gp130 induced by IL-6 and sIL-6Rα in PC12D cells (gp130 on PC12D cells): 8 nM
- tyrosine phosphorylation of gp130 induced by IL-6 in PC12D cells (anti-gp130 immunoprecipitation, anti-phosphotyrosine immunoblot) (gp130 on PC12D cells): 2 nM

Results, then the molecule that gave them:

- TF1 bioassay (MTS); IL-4 concentration at which growth is inhibited by 50% with 10 nM Trap (human IL-4 (human)): 3 to 4 nM
- TF1 bioassay (MTS); highest IL-4 concentration whose growth effect is blocked by 10 nM Trap (human IL-4 (human)): 1 nM
- TF1 bioassay (MTS); IL-13 concentration at which growth is inhibited by 50% with 10 nM Trap (human IL-13 (human)): 4 to 5 nM
- TF1 bioassay (MTS); highest IL-13 concentration whose growth effect is blocked by 10 nM Trap (human IL-13 (human)): 2 nM
Molecule: IL-13Rα1.IL-4Rα.Fc (Fc fusion)

- IL-1-dependent production of IL-6 by MRC5 cells; highest IL-1 concentration blocked [1]: 10 to 20 pM
Molecule: IL-1-RI.Fc (from UniProt P14778 18-336) (Fc fusion)

- IL-6-dependent proliferation of XG-1 cells (MTT assay) (fold molar excess over IL-6) (human IL-6 (human) [2]): 1000
Molecule: gp130-Fc•CNTFRα-Fc ligand Trap (Fc fusion)
